# Results reported in publication PMC8724787, “The epitope arrangement on flavivirus particles contributes to Mab C10’s extraordinary neutralization breadth across Zika and dengue viruses” (Cell, 2021).
# Where a chain is given by its changes, count along the chain named. Names may count otherwise.
# T1: DENV4_Burma/63632/1976 sE protein (aa 1-395) (Dengue virus 4 (strain Burma/63632/1976))
# T1 construct: also called DENV4 sE
# T1 chain: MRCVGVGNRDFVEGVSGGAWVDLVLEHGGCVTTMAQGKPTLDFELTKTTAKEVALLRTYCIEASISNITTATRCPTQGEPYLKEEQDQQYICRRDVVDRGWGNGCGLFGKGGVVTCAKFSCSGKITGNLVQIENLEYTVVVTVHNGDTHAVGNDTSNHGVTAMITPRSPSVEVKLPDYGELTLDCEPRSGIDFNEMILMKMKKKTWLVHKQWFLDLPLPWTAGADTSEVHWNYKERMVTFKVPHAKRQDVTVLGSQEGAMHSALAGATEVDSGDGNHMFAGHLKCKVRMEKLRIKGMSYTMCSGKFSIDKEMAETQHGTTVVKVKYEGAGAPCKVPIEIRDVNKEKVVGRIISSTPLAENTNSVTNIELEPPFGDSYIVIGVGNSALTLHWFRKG
# B1: K^L66A C10 mAb mutant (IgG1) (antibody, V domains shown)
# VH: EVQLVESGAEVKKPGASVKVSCKASGYTFTSYAMHWVRQAPGQRLEWMGWINAGNGNTKYSQKFQDRVTITRDTSASTAYMELSSLRSEDTAIYYCARDKVDDYGDYWFPTLWYFDYWGQGTLVTVSS
# VL: QSALTQPASVSGSPGQSITISCTGTSSDVGGFNYVSWFQQHPGKAPKLMLYDVTSRPSGVSSRFSGSASGNTASLTISGLQAEDEADYYCSSHTSRGTWVFGGGTKLTVL
# notes: IgG1
# B2: C10 intact bivalent IgG1 (human monoclonal antibody EDE1 C10) (antibody, V domains shown)
# VH: B1 VH
# VL: B1 VL with A68K
# B3: C10 single-chain variable fragment (scFv) (scFv, V domains shown)
# VH: B1 VH
# VL: B1 VL with A68K
# B4: C10 bivalent F(ab')2 (other, human)
# VH: B1 VH
# VL: B1 VL with A68K
# Legend:
# [1] = target: T2, ZIKV-H/PF/2013 sE protein (aa 1-404) (Zika virus (strain H/PF/2013)); experiment: BLI
# T2 construct: also called ZIKV sE; ZIKV (sE)2
# [2] = target: T2, ZIKV-H/PF/2013 sE protein (aa 1-404); experiment: SEC-MALS; Superdex 200 10/300 GL; Tris 50 mM pH 8.0, NaCl 500 mM; about 150 ug protein; proteins alone and in complex; settings: both partners purified
# [3] = target: T1, DENV4_Burma/63632/1976 sE protein (aa …); experiment: crystal structure; settings: both partners purified
Binder,stoichiometry N [2],further results
B1,–,other [1]: 2 fold
B2,1 C10 molecule per sE dimer (2:2),–
B3,–,binding result [3]: binds
B4,1 C10 molecule per sE dimer (2:2),–
